Measurements: patent publication US11690918B2, “Pyrrolobenzodiazepine-anti-CD22 antibody conjugates” (ADC THERAPEUTICS S.A., priority 2012, dated 2023)

Tests used:
Ramos xenograft = test: In vivo anti-tumour activity, Ramos mouse xenograft model; settings: NCr nu/nu mice, single dose 1.0 mg/kg IV, FIG. 3
Description: The CD22+(ve) human Burkitt's lymphoma-derived cell line Ramos was used in a mouse xenograft model to test the in vivo efficacy of the Epratuzumab-A ADC. As a non-CD22-binding control, the anti-HIV gp120 antibody, B12, linked to A was used in the same model.
Procedures: • Set up CR female NCr nu/nu mice with l× Ramos-SPN tumor cells in 0% Matrigel sc in flank. • Cell Injection Volume is 0.1 mL/mouse. • Age at Start Date: 8 to 12 weeks. • Perform a pair match when tumors reach an average size of 100-150 mm^3 and begin treatment. • Body Weight: qd×5 then bi-wk to end • Caliper Measurement: bi-wk to end • Report any adverse reactions or death immediately. • Any individual animal with a single observation of >30% body weight loss or three consecutive measurements of >25% body weight loss will be euthanized. • Any group with two measurements of mean body weight loss of >20% or >10% mortality will stop dosing. The group is not euthanized and recovery is allowed. Within a group with >20% weight loss, individuals hitting the individual body weight loss endpoint will be euthanized. […] Animals are to be monitored individually. […]
For the calculation of group mean tumor volumes the following rule was applied: when an animal exited the study due to tumor size, the final tumor volume recorded for the animal was included with the data used to calculate the mean volume at subsequent time points. […]

Ramos cells = test: In vitro cytotoxicity of ADCs, Ramos; format: cell-based, human; settings: FIG. 1, Alamar Blue
Description: (§1) WSU-DLCL2 and SU-DHL-1 cells were from the Leibniz Institute DSMZ-German Collection of Microorganisms and Cell Cultures. Ramos and Daudi cells were from the American Type Culture Collection. Cell culture medium was RPMI 1640 supplemented with L-Glutamine and 10% FBS. Cells were grown at 37° C., 5% CO2, in a humidified incubator.
(§2) The concentration and viability of cultures of suspended cells (at up to 1×10^6/ml) were determined by mixing 1:1 with Trypan blue and counting clear (live)/blue (dead) cells with a haemocytometer. The cell suspension was diluted to the required seeding density (generally 10^5/ml) and dispensed into 96-well flat bottomed plates. For Alamar blue assay, 100 μl/well was dispensed in black-well plates. […] After incubation for 4 days, cell viability was measured by either Alamar blue or MTS assay.
(§3) AlamarBlue® (Invitrogen, catalogue number DAL1025) was dispensed (20 μl per well) into each well and incubated for 4 hours at 37° C. in the CO2-gassed incubator. Well fluorescence was measured at excitation 570 nm, emission 585 nm. Cell survival (%) was calculated from the ratio of mean fluorescence in the 4 ADC-treated wells compared to the mean fluorescence in the 4 control wells (100%).
(§4) MTS (Promega, catalogue number G5421) was dispensed (20 μl per well) into each well and incubated for 4 hours at 37° C. in the CO2-gassed incubator. Absorbance was measured at 490 nm. […]

SU-DHL-1 cells = test: In vitro cytotoxicity of ADCs, SU-DHL-1 (CD22 -ve control); format: cell-based; settings: 4 days incubation, Alamar Blue
Description: as §1, §2, §3, §4

WSU-DLCL2 cells = test: In vitro cytotoxicity of ADCs, WSU-DLCL2; format: cell-based; settings: FIG. 1, Alamar Blue
Description: as §1, §2, §3, §4

Daudi cells = test: In vitro cytotoxicity of ADCs, Daudi; format: cell-based; settings: FIG. 1, Alamar Blue
Description: as §1, §2, §3, §4

B1: Epratuzumab-A: ADC targeted to CD22, generated by conjugating anti-CD22 antibody Epratuzumab to warhead-linker A (conjugate)
VH: QVQLVQSGAEVKKPGSSVKVSCKASGYTFTSYWLHWVRQAPGQGLEWIGYINPRNDYTEYNQNFKDKATITADESTNTAYMELSSLRSEDTAFYFCARRDITTFYWGQG
VL: DIQLTQSPSSLSASVGDRVTMSCKSSQSVLYSANHKNYLAWYQQKPGKAPKLLIYWASTRESGVPSRFSGSGSGTDFTFTISSLQPEDIATYYCHQYLSSWTFGQG
In the case of B1, the “anti-tumor activity (mean tumour volume)” value (Ramos xenograft) is reported as “most potent anti-tumor activity”, the “cytotoxicity against Ramos cells” value (Ramos cells) is reported as “significant cytotoxicity” and the “EC50 SUDHL1” value (SU-DHL-1 cells) is reported as about 6.776 µg/mL. For the same molecule, the “cytotoxicity against WSU-DLCL2 cells” value (WSU-DLCL2 cells) was “significant cytotoxicity” and the “cytotoxicity against Daudi cells” value (Daudi cells) was “significant cytotoxicity”.
